{
  "source": "the nanobody polyreactivity screen of Harvey et al. (2022)",
  "data": [
    {"assay": "yeast display, Sf9 membrane polyspecificity reagent, FACS + sequencing; frameworks hold sequencing errors", "how_it_was_run": "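A synthetic nanobody library was expressed on Saccharomyces cerevisiae BJ5465 by galactose induction for 36–48 hours. The library was stained for 1 hour at 4 °C with 10% biotinylated, detergent-solubilized Sf9 membrane reagent and enriched with streptavidin microbeads before FACS. Low and high (top ~1%) gates were set on anti-HA fluorescence for expression and streptavidin fluorescence for reagent binding, and each polyreactivity label reflects the gate of origin.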", "values": [
      {"sequence": "QVQLVESGGGLVQAGGRLRLSCAASGGIFGSYAMGWYRQAPGKERELVADITQSGGRTRYADSVKGRFTISRDNAKNTVYLQMNSLKPEDTAVYYCNAQDVDSGDDYDYWGQGTQVTVSS", "polyreactivity (PSR sort gate)": "low polyreactivity"},
      {"sequence": "QVQLVESGGGLVQAGGRLRLSCAASGGIFSTYTRGWYRQEPGKERELVAAITTGNSTYYADSVKGRFTISRDNAKNTVYLQMNSLKPEDTAVYYCAADTIGYHYWYDYWGQGTQVTVSS", "polyreactivity (PSR sort gate)": "low polyreactivity"},
      {"sequence": "QVQLVESGGGLVQAGGRLRLSCAASGGTFVPYAMGWYRQAPGTERELVARISKRGGTTYYADSVKGRFTISRDTAKNTVYLQMNSVKPEDTAVYYCGAVLPARGYYWGEGTQVTVSS", "polyreactivity (PSR sort gate)": "high polyreactivity"},
      {"sequence": "QVQLVESGGGLVQAGGRLRLSCAASGGTFYTYFMGWYRQAPGKERELVAAISQSGGRTYYADSVKGRFTISRDNAKNTVYLQMISLKPEDTAVYYCAAPDESYSFWRLDGLDYWGQGTQVTVSS", "polyreactivity (PSR sort gate)": "high polyreactivity"},
      {"sequence": "QVQLVESGGGLVQAGGRLRLSCAASGIIFASNAMGWYCQAPGKERELVAAISRSGGRTYYADSVKGRFTISRDNAKNTVYLQMNSLKPEDTAVYYCAILARSGTLPYYYWGQGTQVNVSS", "polyreactivity (PSR sort gate)": "high polyreactivity"},
      {"sequence": "QVQLVESGGGLVQAGGRLRLSCAASGIIFAWYAMGWSRQAPGKERELVAAITSGGSTYYADSVKGRFTISRDNAKNTVYLQMNSLKPDDTAVYYCAASDASTGYLGRHYYWGPGTQVTVSS", "polyreactivity (PSR sort gate)": "high polyreactivity"},
      {"sequence": "QVQLVESGGGLVQAGGRLRLSCAASGIIFGGYSMGWYRQAPGKERELVADITWSGGSTTYADSVKGRFTISRDNAKNTVYLQMNSLKPEDTAVYYCAAEDYYIYREPYDYWGQGTQVTVSS", "polyreactivity (PSR sort gate)": "low polyreactivity"},
      {"sequence": "QVQLVESGGGLVQAGGRLRLSCAASGIIFRVYTMGWYRPEPGKERELVATISLGVARTYYADSVKGRFTISRDNAKYTVYLQMNSLKPEDTAVYYCAKRRGGQGNYWGQGTQVTVSS", "polyreactivity (PSR sort gate)": "high polyreactivity"},
      {"sequence": "QVQLVESGGGLVQAGGRLRLSCAASGIIFVVNDMGWYRQAPGKEWELVADISDSGGSTNYADSVKGRFTISRDKAKNTVYLQMNSLKPEDTAVYYCAADSADPTEYDYWGQGTQVTVSS", "polyreactivity (PSR sort gate)": "low polyreactivity"},
      {"sequence": "QVQLVESGGGLVQAGGRLRLSCAASGITFPGNVMGWSRHAPGKERELVAAISSTGSTNYADSVKGRFTISRDNAKNTVYLQMNSLKPEDTAVYYCAARFWYDYRHYDYWGQGTQVTVSS", "polyreactivity (PSR sort gate)": "low polyreactivity"},
      {"sequence": "QVQLVESGGGLVQAGGRLRLSCAASGITFRTNTMGWYRPAPGKERELVASISSGTRTNYADSVKGRFTISRDNAKNTVYLQLNSLKPVDTAVYYCAAGPPRTRYRNARFDYWGQGTQVTVSS", "polyreactivity (PSR sort gate)": "high polyreactivity"},
      {"sequence": "QVQLVESGGGLVQAGGRLRLSCAASGIVFKRYAKGWYRQAPGKEREFVATISYTGGRTYYADSVKGRFTISRDTAKNTVYLQMNSLKPEDTAVYYCATLYRSSKHQPLDYWGQGTQVTVSS", "polyreactivity (PSR sort gate)": "high polyreactivity"},
      {"sequence": "QVQLVESGGGLVQAGGRLRLSCAASGLICNANPMGWYRQAPGKEREFVAAITTSGGKTYYADSVKGRFTISRDNAKYTVYLQMNSLKPEDTAVYYCAATDLYFWYPYWFAFEYDYWGLGTQVTVSS", "polyreactivity (PSR sort gate)": "high polyreactivity"},
      {"sequence": "QVQLVESGGGLVQAGGRLRLSCAASGLIFYKYAMGWYRQAPGKERELVAAISSRTGSTSYADSVKGRFTISRDNAKNTVYLQMNSLKPEDTAVYYCAARPRYNEYGYWGQGTQVTVSS", "polyreactivity (PSR sort gate)": "high polyreactivity"},
      {"sequence": "QVQLVESGGGLVQAGGRLRLSCAASGLTFEYNAMGWYRQAPGKERELVASISSGGGTNYADSVKGRFTISRDNAKNTVYLQMNSLKPVDTAVYYCATDNYDWSCWAFRGYWYDYWGQGTQVTVSS", "polyreactivity (PSR sort gate)": "low polyreactivity"},
      {"sequence": "QVQLVESGGGLVQAGGRLRLSCAASGLTFKSYTMGLYRQAPGKERELVATISGSGTRTYYADSVKGRYTISRDNAKNTVFLQMNSLKPEDTAVYYCARVILYNNYFRYSGYRYDYWGQGTQGTVSS", "polyreactivity (PSR sort gate)": "high polyreactivity"},
      {"sequence": "QVQLVESGGGLVQAGGRLRLSCAASGLTFPPNAMGWYRQAPGKERELVADSGGSTNYADSVKGRFTISRDNAKNTVYLQMNSLKPEDTAVYYCAAPPYSDGQWDDYWGQGTQVTVSS", "polyreactivity (PSR sort gate)": "low polyreactivity"},
      {"sequence": "QVQLVESGGGLVQAGGRLRLSCAASGLTFPRNAMGWYRQAPGKERELVAAISWRGSSTYYADSVKGRFTISRDNAKNTVFLQMNSLQPEDTAVYYCAASYAGGQHDYWGQGTQVTVSS", "polyreactivity (PSR sort gate)": "high polyreactivity"},
      {"sequence": "QVQLVESGGGLVQAGGRLRLSCAASGLTFTYNAMGWYRQEPGKERELVAAITSGGNTNYADSVKGRFTISRDNAKNTVYLQMNSLKPEDTAVYYCATDRKNGISGRYGYWGQGTQVTVSS", "polyreactivity (PSR sort gate)": "low polyreactivity"},
      {"sequence": "QVQLVESGGGLVQAGGRLRLSCAASGRICIIYALGWYRQAPGKEREFVAAITSSGGSTYYADSVKGRFTISRDNAKNTVYLQMNSLTPEDTAVYYCAARVTKLRTSSLRGYWGQGTQVTVSS", "polyreactivity (PSR sort gate)": "high polyreactivity"},
      {"sequence": "QVQLVESGGGLVQAGGRLRLSCAASGRIFAYYAMGWYRQAPGKERELVAGISQRGSRTYYADSVKGRFTNSRDNAKNTVYLQMNSLTPEDTAVYYCAARDRRTVTMDYWGQGTQVTVSS", "polyreactivity (PSR sort gate)": "high polyreactivity"}
    ]}
  ]
}
